Laboratory results taken from JP2006347922A (dated 2006).
Numbering of substitutions follows the chain as printed.

Key:
Experiment in all cases: ELISA, coated protein
BSA(ウシ血清アルブミン) = target: T1, BSA(ウシ血清アルブミン) (ウシ, UniProt P02769 25-607)
T1 construct: also called BSA

HSA(ヒト血清アルブミン) = target: T2, HSA(ヒト血清アルブミン) (ヒト, UniProt P02768 25-609)
T2 construct: also called HSA

Human-hemoglobin = Human-hemoglobin (human, UniProt P69905 2-142; P68871 2-147)

Measured: binding result

T2 sequence (P02768 25-609): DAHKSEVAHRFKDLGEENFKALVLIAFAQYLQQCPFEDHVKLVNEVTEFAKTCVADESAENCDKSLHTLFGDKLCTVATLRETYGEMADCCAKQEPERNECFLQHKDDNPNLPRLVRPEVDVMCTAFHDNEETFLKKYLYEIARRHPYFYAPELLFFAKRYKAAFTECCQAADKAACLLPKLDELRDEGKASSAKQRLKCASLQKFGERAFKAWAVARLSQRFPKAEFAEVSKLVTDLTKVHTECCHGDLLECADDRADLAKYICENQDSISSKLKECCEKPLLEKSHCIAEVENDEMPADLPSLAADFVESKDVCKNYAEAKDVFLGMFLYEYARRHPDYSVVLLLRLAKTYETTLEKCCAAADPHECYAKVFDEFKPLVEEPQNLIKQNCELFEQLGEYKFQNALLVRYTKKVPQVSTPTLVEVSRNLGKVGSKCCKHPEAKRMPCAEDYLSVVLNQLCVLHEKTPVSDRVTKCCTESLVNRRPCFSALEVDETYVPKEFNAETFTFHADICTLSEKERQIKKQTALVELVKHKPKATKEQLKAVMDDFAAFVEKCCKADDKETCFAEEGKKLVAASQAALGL
T1 sequence (P02769 25-607 limits assumed): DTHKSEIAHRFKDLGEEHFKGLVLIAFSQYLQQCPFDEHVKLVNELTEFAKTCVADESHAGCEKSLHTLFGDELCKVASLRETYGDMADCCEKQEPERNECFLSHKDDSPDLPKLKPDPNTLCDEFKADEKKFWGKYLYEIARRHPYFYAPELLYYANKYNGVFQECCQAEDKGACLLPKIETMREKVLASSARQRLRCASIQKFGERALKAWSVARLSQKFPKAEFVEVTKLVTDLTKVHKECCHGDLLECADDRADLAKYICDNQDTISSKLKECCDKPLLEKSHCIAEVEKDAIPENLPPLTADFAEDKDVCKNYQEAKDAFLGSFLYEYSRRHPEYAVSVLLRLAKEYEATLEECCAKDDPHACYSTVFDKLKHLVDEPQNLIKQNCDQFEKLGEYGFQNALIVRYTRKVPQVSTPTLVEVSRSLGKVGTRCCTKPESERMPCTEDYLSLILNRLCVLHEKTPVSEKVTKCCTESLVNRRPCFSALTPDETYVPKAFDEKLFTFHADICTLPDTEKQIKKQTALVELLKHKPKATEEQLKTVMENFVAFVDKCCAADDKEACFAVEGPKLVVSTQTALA
Chain of Human-hemoglobin (P69905 2-142 limits assumed, chain 1 of 2): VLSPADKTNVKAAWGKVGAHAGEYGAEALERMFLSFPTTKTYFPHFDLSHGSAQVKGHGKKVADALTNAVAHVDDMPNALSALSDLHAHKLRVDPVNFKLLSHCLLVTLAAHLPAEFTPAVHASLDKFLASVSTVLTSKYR
Chain of Human-hemoglobin (P68871 2-147 limits assumed, chain 2 of 2): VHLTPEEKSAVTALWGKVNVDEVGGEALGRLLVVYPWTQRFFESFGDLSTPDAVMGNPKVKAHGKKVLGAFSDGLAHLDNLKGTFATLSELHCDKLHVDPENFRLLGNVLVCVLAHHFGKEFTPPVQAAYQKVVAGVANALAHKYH

B1: モノクロナール抗体(抗体酵素)HA1−1 (antibody, V domains shown)
VH: QVQLQQSGPQLVRPGASVKISCKTSGYSFTTYWMHWVKQRPGQGLDWIGMIDPSESETRLNQKFKDKATLTVDKSSSTADMQLSSPTSEDSAVYYCASYEGYWGQGTLVTVS
VL: DIVMSQSPSSLAVSAGEKVTMSCKSSQSLLNSRTRKNYLAWYQQKPGQSPKLLIYWASARESGVPDRFTGSGSGTDFTLTISSVQAEDLAVYYCKQSYTLTWTFGGGTKVEIKR
notes: also called HA1-1; HA1−1抗体
no binding: all assays above

B2: モノクロナール抗体(抗体酵素)HA1−2 (antibody, V domains shown)
VH: QVQLQQSGPHLVRPGTSVRISCKASGYSFTSYWMHWVKQRPGQGLEWIGMIAPSDSETGLNQKFKDKATLTVDKSSSTAYIQLSSPTSEDSAVYYCASYEAYWGQGTLVTVS
VL: B1 VL with A15V, T34A, A59T, T99N, L100V, V110L
notes: also called HA1-2; HA1−2抗体
no binding: all assays above
